Source: patent publication US20260102474A1 (DEUTSCHES KREBSFORSCHUNGSZENTRUM STIFTUNG DES FFENTLICHEN …, published 2026)

Columns and labels:
Experiment in all cases: ELISA on coated his-tagged Fc receptor, anti-human-Fc HRP detection
[1] = target: T1, his-tagged FcγRIIb protein (R&D Systems) (UniProt P31994 46-217)
T1 sequence (looked up): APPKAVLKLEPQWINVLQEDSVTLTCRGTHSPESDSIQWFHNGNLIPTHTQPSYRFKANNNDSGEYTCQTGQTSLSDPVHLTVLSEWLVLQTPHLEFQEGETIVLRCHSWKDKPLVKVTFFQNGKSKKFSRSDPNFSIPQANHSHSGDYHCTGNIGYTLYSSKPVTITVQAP

[2] = target: his-tagged FcRIIIa protein (R&D Systems) (UniProt P08637 17-208)
[3] = target: T2, his-tagged FcγRIIa protein (R&D Systems) (UniProt P12318 36-218)
T2 sequence (looked up): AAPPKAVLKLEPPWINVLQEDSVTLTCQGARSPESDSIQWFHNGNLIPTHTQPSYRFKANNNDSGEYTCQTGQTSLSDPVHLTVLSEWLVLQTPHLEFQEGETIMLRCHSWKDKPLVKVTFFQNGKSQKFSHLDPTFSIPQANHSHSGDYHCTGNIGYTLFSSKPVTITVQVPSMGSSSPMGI

[4] = target: his-tagged FcγRI protein (R&D Systems) (UniProt P12314 16-288)

Measured: binding result

Sequence of his-tagged FcRIIIa protein (R&D Systems) (P08637 17-208 limits assumed): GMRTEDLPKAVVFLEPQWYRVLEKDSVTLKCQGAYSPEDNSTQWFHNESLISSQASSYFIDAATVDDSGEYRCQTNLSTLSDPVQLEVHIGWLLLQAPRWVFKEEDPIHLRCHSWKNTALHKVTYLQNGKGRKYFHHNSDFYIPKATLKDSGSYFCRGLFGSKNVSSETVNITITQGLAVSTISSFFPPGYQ
Sequence of his-tagged FcγRI protein (R&D Systems) (P12314 16-288 limits assumed): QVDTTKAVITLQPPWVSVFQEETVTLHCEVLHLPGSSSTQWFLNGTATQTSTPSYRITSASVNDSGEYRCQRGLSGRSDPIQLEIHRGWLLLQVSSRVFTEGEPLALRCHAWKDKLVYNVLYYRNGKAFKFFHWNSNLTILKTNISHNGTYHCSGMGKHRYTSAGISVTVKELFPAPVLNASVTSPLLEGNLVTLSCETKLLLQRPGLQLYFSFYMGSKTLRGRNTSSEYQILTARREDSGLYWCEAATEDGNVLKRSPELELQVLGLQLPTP

B1: ACE2-M1-FcKO (Fc fusion)
chain: STIEEQAKYFLDKFNHEAEDLFYQSSLASWNYNTNITEENVQNMNNAGDKWSAFLKEQSTYAQMYPLQEIQNLTVKLQLQALQQNGSSVLSEDKSKRLNTILNTMSTIYSTGKVCNPDNPQECLLLEPGLNEIMANSLDYNERLWAWESWRSEVGKQLRPLYEEYVVLKNEMARANHYEDYGDYWRGDYEVNGVDGYDYSRGQLIEDVEHTFEEIKPLYEHLHAYVRAKLMNAYPSYISPIGCLPAHLLGDMWGRFWTNLYSLTVPFGQKPNIDVTDAMVDQAWDAQRIFKEAEKFFVSVGLPNMTQGFWEYSMLTDPGNVQKAVCHPTAWDLGKGDFRILMCTKVTMDDFLTAHREMGRIQYDMAYAAQPFLLRNGANEGFHEAVGEIMSLSAATPKHLKSIGLLSPDFQEDNETEINFLLKQALTIVGTLPFTYMLEKWRWMVFKGEIPKDQWMKKWWEMKREIVGVVEPVPHDETYCDPASLFHVSNDYSFIRYYTRTLYQFQFQEALCQAAKHEGPLHKCDISNSTEAGQKLFNMLRLGKSEPWTLALENVVGAKNMNVRPLLNYFEPLFTWLKDQNKNSFVGWSTDWSPYADQSIKVRISLKSALGDKAYEWNDNEMYLFRSSVAYAMRQYFLKVKNQMILFGEEDVRVANLKPRISFNFFVTAPKNVSDIIPRTEVEKAIRMSRSRINDAFRLNDNSLEFLGIQPTLGPPNQPPVSSGGGGSGGGGSGGGGSEPKSSDKTHTCPPCPAPPVAGPSVFLFPPKPKDTLMISRTPEVTCVVVGVSHEDPEVKFNWYVDGVEVHNAKTKPREEQYNSTYRVVSVLTVLHQDWLNGKEYKCKVSNKQLPSPIEKTISKAKGQPGQPREPQVYTLPPSRDELTKNQVSLTCLVKGFYPSDIAVEWESNGQPENNYKTTPPVLDSDGSFFLYSKLTVDKSRWQQGNVFSCSVMHEALHNHYTQKSLSLSPGK
notes: also called M1 version
no binding: all assays above
